Values quoted from earlier work, collected in publication PMC4937678, “In Vivo Measurement and Characterization of a Novel Formulation of [^177Lu]-DOTA-Octreotate” (Asia Oceania Journal of Nuclear Medicine and Biology, 2016).
Where two headings read alike, the source gives them in different places.

Text: Table 4 Comparison of Published Radiation Dose Estimates for Different Formulations of [^177Lu]-DOTA-Octreotate ([3], [7]-[11]) | column: Dose (mGy/MBq)
[1] = 6 subjects, ref Kwekkeboom (2001) [3]
[2] = 10 subjects, value (range), ref Cremonesi (2006) [10]
[3] = 24 subjects, range, ref Sandstrom (2010) [8]

Q: Which “Dose, Liver” value [1] does the source give for `C[C@@H](O)[C@H](NC(=O)[C@@H]1CSSC[C@H](NC(=O)[C@@H](Cc2ccccc2)NC(=O)CN2CCN(CC(=O)[O-])CCN(CC(=O)[O-])CCN(CC(=O)[O-])CC2)C(=O)N[C@@H](Cc2ccc(O)cc2)C(=O)N[C@H](Cc2c[nH]c3ccccc23)C(=O)N[C@@H](CCCCN)C(=O)N[C@@H]([C@@H](C)O)C(=O)N1)C(=O)O.[177Lu+3]` [[^177Lu]-DOTA-Octreotate] here?
A: Its value is 0.21 ± 0.08 mGy/MBq.

Q: And the “Dose, Red Marrow” value [1]?
A: Its value is 0.07 ± 0.01 mGy/MBq.

Q: What about the “Dose, Spleen” value [1] of the same compound?
A: Its value is 2.15 ± 0.39 mGy/MBq.

Q: And the “Dose, Liver” value [2]?
A: The value was 0.18 (0.05 – 0.34) mGy/MBq.

Q: What about the “Dose, Red Marrow” value [2] of the same compound?
A: The value was 0.04 (0.02 – 0.06) mGy/MBq.

Q: What about the “Dose, Spleen” value [2] of the same compound?
A: Its value is 0.64 (0.29-2.91) mGy/MBq.

Q: What about the “Dose, Red Marrow” value (14 subjects, ref Forrer (2009) [9]) of the same compound?
A: Its value is 0.02 ± 0.03 mGy/MBq.

Q: And the “Dose, Kidney (range)” value [3]?
A: The value was “(0.32 – 1.67) mGy/MBq”.

Q: What about the “Dose, Liver (range)” value [3] of the same compound?
A: The value was “(0.13 – 1.10) mGy/MBq”.

Q: And the “Dose, Spleen (range)” value [3]?
A: Its value is 0.21 – 1.86 mGy/MBq.

Q: What about the “Dose, Red Marrow” value (27 subjects, ref Wehrmann (2007) [11]) of the same compound?
A: The value was 0.04 ± 0.02 mGy/MBq.

Q: What about the “Dose, Spleen” value (73 subjects, ref Wehrmann (2007) [11]) of the same compound?
A: The value was 1.2 ± 0.5 mGy/MBq.

Q: And the “Dose, Kidney” value (89 subjects, ref Wehrmann (2007) [11])?
A: Its value is 0.9 ± 0.3 mGy/MBq.

Q: What about the “Dose, Kidney” value (no renal protection, 6 subjects, ref Kwekkeboom (2001) [3]) of the same compound?
A: Its value is 1.65 mGy/MBq.

Q: What about the “Dose, Kidney” value (with renal protection, 5 subjects, ref Kwekkeboom (2001) [3]) of the same compound?
A: The value was 0.88 mGy/MBq.
